Test results published in US9976134B2, “Thermolysin variants” (Danisco US Inc., priority 2007, dated 2018).
Substitutions are numbered along the chain they refer to. Names and notes keep the numbering of the source.

B1: I156E: single-substitution thermolysin variant (SEQ ID NO:3 numbering) (protein, listed as Geobacillus caldoproteolyticus)
chain: ITGTSTVGVGRGVLGDQKNINTTYSTYYYLQDNTRGNGIFTYDAKYRTTLPGSLWADADNQFFASYDAPAVDAHYYAGVTYDYYKNVHNRLSYDGNNAAIRSSVHYSQGYNNAFWNGSQMVYGDGDGQTFIPLSGGIDVVAHELTHAVTDYTAGLEYQNESGAINEAISDIFGTLVEFYANKNPDWEIGEDVYTPGISGDSLRSMSDPAKYGDPDHYSKRYTGTQDNGGVHINSGIINKAAYLISQGGTHYGVSVVGIGRDKLGKIFYRALTQYLTPTSNFSQLRAAAVQSATDLYGSTSQEVASVKQAFDAVGVK
B2: S065W: single-substitution thermolysin variant (SEQ ID NO:3 numbering) (protein, listed as Geobacillus caldoproteolyticus)
chain: B1 chain with S65W, E156I
B3: S065D: single-substitution thermolysin variant (SEQ ID NO:3 numbering) (protein, listed as Geobacillus caldoproteolyticus)
chain: B1 chain with S65D, E156I
B4: A056E: single-substitution thermolysin variant (SEQ ID NO:3 numbering) (protein, listed as Geobacillus caldoproteolyticus)
chain: B1 chain with A56E, E156I
B5: A058C: single-substitution thermolysin variant (SEQ ID NO:3 numbering) (protein, listed as Geobacillus caldoproteolyticus)
chain: B1 chain with A58C, E156I
B6: Q061E: single-substitution thermolysin variant (SEQ ID NO:3 numbering) (protein, listed as Geobacillus caldoproteolyticus)
chain: B1 chain with Q61E, E156I
B7: Q061M: single-substitution thermolysin variant (SEQ ID NO:3 numbering) (protein, listed as Geobacillus caldoproteolyticus)
chain: B1 chain with Q61M, E156I
B8: S065P: single-substitution thermolysin variant (SEQ ID NO:3 numbering) (protein, listed as Geobacillus caldoproteolyticus)
chain: B1 chain with S65P, E156I
B9: A058E: single-substitution thermolysin variant (SEQ ID NO:3 numbering) (protein, listed as Geobacillus caldoproteolyticus)
chain: B1 chain with A58E, E156I
B10: T278N: single-substitution thermolysin variant (SEQ ID NO:3 numbering) (protein, listed as Geobacillus caldoproteolyticus)
chain: B1 chain with E156I, T278N
B11: T006A: single-substitution thermolysin variant (SEQ ID NO:3 numbering) (protein, listed as Geobacillus caldoproteolyticus)
chain: B1 chain with T6A, E156I
B12: T278S: single-substitution thermolysin variant (SEQ ID NO:3 numbering) (protein, listed as Geobacillus caldoproteolyticus)
chain: B1 chain with E156I, T278S
B13: Q273A: single-substitution thermolysin variant (SEQ ID NO:3 numbering) (protein, listed as Geobacillus caldoproteolyticus)
chain: B1 chain with E156I, Q273A
B14: N280S: single-substitution thermolysin variant (SEQ ID NO:3 numbering) (protein, listed as Geobacillus caldoproteolyticus)
chain: B1 chain with E156I, N280S
B15: T278C: single-substitution thermolysin variant (SEQ ID NO:3 numbering) (protein, listed as Geobacillus caldoproteolyticus)
chain: B1 chain with E156I, T278C
B16: Q273N: single-substitution thermolysin variant (SEQ ID NO:3 numbering) (protein, listed as Geobacillus caldoproteolyticus)
chain: B1 chain with E156I, Q273N
B17: T278H: single-substitution thermolysin variant (SEQ ID NO:3 numbering) (protein, listed as Geobacillus caldoproteolyticus)
chain: B1 chain with E156I, T278H
B18: Q273T: single-substitution thermolysin variant (SEQ ID NO:3 numbering) (protein, listed as Geobacillus caldoproteolyticus)
chain: B1 chain with E156I, Q273T
B19: N280I: single-substitution thermolysin variant (SEQ ID NO:3 numbering) (protein, listed as Geobacillus caldoproteolyticus)
chain: B1 chain with E156I, N280I
B20: N280M: single-substitution thermolysin variant (SEQ ID NO:3 numbering) (protein, listed as Geobacillus caldoproteolyticus)
chain: B1 chain with E156I, N280M
B21: Q273W: single-substitution thermolysin variant (SEQ ID NO:3 numbering) (protein, listed as Geobacillus caldoproteolyticus)
chain: B1 chain with E156I, Q273W
B22: N280L: single-substitution thermolysin variant (SEQ ID NO:3 numbering) (protein, listed as Geobacillus caldoproteolyticus)
chain: B1 chain with E156I, N280L
B23: T278Y: single-substitution thermolysin variant (SEQ ID NO:3 numbering) (protein, listed as Geobacillus caldoproteolyticus)
chain: B1 chain with E156I, T278Y
B24: N280E: single-substitution thermolysin variant (SEQ ID NO:3 numbering) (protein, listed as Geobacillus caldoproteolyticus)
chain: B1 chain with E156I, N280E

Assay: Stability assay in 25% TIDE 2X detergent without DTPA (residual Abz-AGLA-Nba protease activity)
Type: physicochemical
Conditions: 180 min at 50°C; variant residual AGLA activity divided by wild-type residual activity
Description: (§1) The stability of thermolysin and variants thereof was measured after incubation under defined conditions in the presence of 25% TIDE® 2× detergent. The initial and residual activity was determined.
(§2) MTPs were obtained from Costar (type 9017) and from Greiner (black plate, type 655076). Test Method Unstressed Conditions:
(§3) First, 20 μl thermolysin containing culture supernatant was diluted with 180 μl MES assay buffer. Then, 20 μl diluted supernatant was diluted further with 180 μl MES assay buffer. Subsequently 10 μl of this dilution was transferred into 190 μl AGLA-substrate solution in a pre-warmed plate (Greiner 655076) at 25° C. Any air bubbles present were blown away and the plate was measured according to the AGLA protease assay protocol described below.
(§4) First, 20 μl of culture supernatant was diluted with 180 μl 27.5% TIDE®+detergent solution and placed in the iEMS shaker. The plate covered with a plate seal was incubated for a total of 60 minutes at 32° C. at 900 rpm. In addition, 20 μl of culture supernatant was diluted with 180 μl 27.5% TIDE®−solution and placed in the iEMS shaker. This plate covered with a plate seal was incubated for a total of 180 minutes at 50° C. at 900 rpm.
(§5) Subsequently after the respective incubations, 20 μl of either of these solutions were diluted with 180 μl MES assay buffer and 10 μl of this dilution were diluted with 190 μl AGLA-substrate solution in a pre-warmed plate (Greiner 655076) at 25° C.
(§6) Fluorescence measurements were taken at excitation of 350 nm and emission of 420 nm. The spectrofluorometer software calculated the reaction rates (=slope) of the increase in fluorescence for each well to a linearly regressed line of (milli-) RFU/min. The ratio of the residual and initial AGLA activity was used to express the 25% TIDE® 2× stability as follows: Percentage of residual activity=[slope of stressed]*100/[slope of unstressed]
(§7) For each sample (thermolysin and variants thereof) the performance index was calculated by dividing the residual activity of the variant by the residual activity of thermolysin. The performance index compared the stability of the variant and the standard thermolysin enzyme (e.g., wild type or parental enzyme), determined under the same conditions.
(§8) In these experiments, the liberation of Abz-AG by protease cleavage of Abz-AGLA-Nba was monitored by fluorescence spectrometry (Ex. 350/Em. 420). The rate of appearance of Abz-AG was a measure of proteolytic activity.
(§9) The Abz-AGLA-Nba assay solution was prepared by adding 1 ml of the Abz-AGLA-Nba stock to 19 ml MES substrate buffer and mixed well for at least 2 minutes. Subsequently the thermolysin or variants thereof containing culture supernatants were diluted with MES assay buffer to a concentration of 1-6 μg protein per ml.
(§10) The assay was performed by adding 10 μl of diluted protease solution to each well, followed by the addition of 190 μl Abz-AGLA-Nba assay solution that was pre-equilibrated for at least 15 minutes at 25° C. The solutions were vigorously mixed, and the liberation of Abz-AG by protease cleavage of Abz-AGLA-Nba was monitored by fluorescence spectrometry at 25° C. in kinetic mode with excitation set at 350 nm and emission set at 420 nm. The rate of appearance of Abz-AG was a measure of proteolytic activity in the samples. The protease activity was expressed as RFU (relative fluorescence units·min^−1).
(§11) As described in Example 1, the stability of thermolysin variants was measured by determining the AGLA activity before and after incubation in the presence of TIDE® 2× heavy duty liquid (HDL) detergent at an elevated temperature. The tables contain the relative stability values compared to wild-type thermolysin, which is the quotient of the variant residual activity divided by the wild-type residual activity. A value greater than one indicates higher stability in the presence of detergent. […]

Row | Molecule | PI (relative stability), 25% TIDE 2X without DTPA
1 | B1 | 1.09
2 | B2 | 1.09
3 | B3 | 1.20
4 | B4 | 1.07
5 | B5 | 1.01
6 | B6 | 1.05
7 | B7 | 1.01
8 | B8 | 1.18
9 | B9 | 1.24

Assay: Stability assay in 25% TIDE 2X detergent with DTPA (residual Abz-AGLA-Nba protease activity)
Type: physicochemical
Conditions: 60 min at 32°C; variant residual AGLA activity divided by wild-type residual activity
Description: as §1, §2, §3, §4, §5, §6, §7, §8, §9, §10, §11

Row | Molecule | PI (relative stability), 25% TIDE 2X with DTPA
10 | B1 | 1.58
11 | B10 | 1.07
12 | B11 | 1.01
13 | B12 | 1.08
14 | B13 | 1.03
15 | B14 | 1.19
16 | B15 | 1.05
17 | B16 | 1.25
18 | B17 | 1.07
19 | B18 | 1.08
20 | B19 | 1.16
21 | B20 | 1.16
22 | B21 | 1.05
23 | B22 | 1.21
24 | B23 | 1.05
25 | B24 | 1.13
